Consider 47 sequences from the NTF2 design screens of Basanta et al. (2020).

A short description of the data set: protease stability score; higher = more stable; yeast display proteolysis, trypsin and chymotrypsin.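 Also: log10 excess protease needed over predicted unfolded state with 0 meaning unfolded.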

Consider “DERVKSQATEFVTALKRNDEKRLMELADKDVSVRYGDKVVHGRERVRETARHITEESRVEYDTVRVDVQGNQANVEMEATFDHNGKPDRAKVNIQINFHNGKIKRVRIDKKP”, for which the protease stability score was 0.971.
“DERVNREWEKFIHAFESGNESQLKRLMDKDVRLTVGDKQIEGREEMARQLKKRRDQSRVSINIESVQHDGDKVHIQFHVTNNKNGRPEKRTSVVTVEAHNGKLKEVNIDDKP” had a protease stability score of 0.803.
“DERWKEKFEQMVRDQKTGNEDEVAKYFDKNAEIKVGDQRFHGREQLREHLREQRRQMRVDIDIKHVDVKGNHITVEYEFRENHNGRPTRRKATLRAEYHNGKIQRMRIDKSG” showed a protease stability score of 1.33.
Sequence “DESAAERFDEFMRNVDTNNEHKLKEYADPNAKVQYGDKVLHGMDQIIHDIRRYMEEMRVRVDFKRYDAQGNELSFVADYSAEYNGEPVNDNVTFHVEAHNGKLKDMKINFDPKKDQDRRG” returned a protease stability score of 0.355.
As for “DESAHKLVHDMMDAIRQNNPERVEQLADPNVKIEYGDEVIQGRENVSTTMKEILEKQRVEYNFKRVDDHNGQVRADVEVEVEHNGEPHRDKLIVHAERHNGRIRYVELQHDG”, the protease stability score is -0.174.
“DESAIHDVTNLLHNIQTGNPDEVDKHMDKHVKLNVGDKQISGRHRVRKKVEREKKEIRIHITVYHMRSRPGRVKIDATRENEHNGTPHSHRVIVDVRYDNGKIVNFRVEDVK” yielded a protease stability score of 0.366.
As for “DESAIQHWRKMLEAVETGDEKKIQKQADPNAKFRVGDKVIHGREKYAKQKVQEARQIRVEIDIKDWENRPGRVNLDADARYEINGQPVTFRLEVEMRMHNGHFVSVDVQFDEEKWEKLHK”, the protease stability score is 0.037.
As to “DESAKRKFEEFLEQIRHNNPDELKKMMDKDVRVNIGDKEINGRDQVKNELERFAKEQRFRIQVKHMSVSNGHLHAKVTVESTHNGSPDSDKFQVQANFQGDKFKEMQWDKDS”, the protease stability score was -0.189.
The sequence “DESAQRLFEELLKAEHDGDRDRYQQLIDPNARIQVGDKSVKGRENIKHDVYRKHKEIRFSIQSMNNKVDGDKVKVDAKVVKEHDGRPDHAQITATVRARGDKVDEIRKEERK” registered a protease stability score of -0.245.
Turning to “DESARDIASTIVSALHNNNPSQFSENLDKDATLNIGDKRIHGKERAEEHLSNQIKSLRIQFDDYQVRVHNGDVIINLDYKRDHNGEPRRVKQRVTIQIHNGRAQSVVVKETS”, the protease stability score came out at 0.365.
Sequence “DESAVNNLVRLAKAWLRGDPKKIEHLVDKDAKAQIGDKTLHGREDLKDHADELRKDMTVDVKSVTNNNQNGQAVVDVKFEADRNGRPETHTLDAKATAHNGDIVDVKIHQDG” gave a protease stability score of -0.304.
Regarding “DESDLSRQAKELIDNWETGNPDKMRKLMDENVTADVGDKRWHGRDEVVKWFKTLVDSIDHIEVREFKVSGNSVTFTAEANVNGKKATFQVVIEVHNGKIKDVKVNPDDLKQLEK”, the protease stability score amounted to 1.58.
“DESDMKRQAELFIRAVNTGDSDKVRKMADKDAHYDVGDKEIHGRENAARWVQRLREQADEVTVRDVRVQGEKVVIDVQADVNGRDVRMDLVIEFHNGKAQEVKMKHS” had a protease stability score of 0.025.
“DESDQDRFRKYLHQLQNGDEKKLRKNMDPNVKFEVGEKRYEGREEYAKKVRQEVEEMRFSFKIHDIEVHNGRVTVEFEVTYEHNGRPDHEHVRIEMEVHNGKIRSVRQESDK” came in with a protease stability score of 0.043.
As for “DESDVEDLAKDAINAYQTGDPDQVARMADKDVKFTVGDHEVKGRNQLREHLQTIFHNVDHFDVTDMRINGNKARIHFTANVNGQTERNVMIIVAHNGKVRKMAIHSQ”, the protease stability score is -0.566.
“DESDVERLTEIMEQNDFDQWVDQADKDAELVVGDKTLKGRETIQRWLKILSERVDHVSIKHIRNNGEEVDVKMTMIINGHRFEFVVNLTVHNGKITRFNFNFRDPDQLRRLHDQMS” gave a protease stability score of 1.25.
Regarding “DESDVKRAQDMVQNEQDGNEEEFDKLLDENVHFNVGDKRVNGRQQYLREVKKKRDQIRFSIKIDSVRARNGEATIDASARMVVNGQPKTYKFVIHVVQHNGDVRHVRISVPEEDVKRLKS”, the protease stability score was found to be 0.212.
As for “DESEEKELEDILRRNDWERMSELAPPDVHATVGDTRLHGMEQVLSLFQTLNKRADQIHVKTLSVHNGQLHAVIVMQFNGRRVELHFDFEVKNGEFTSARVQARTEEEEKVMKEVLR”, the protease stability score turned out to be 1.05.
With “DESEHAKRVADKFRTAAKNGDPDQFTQLADPNAKIDIGDKDVSGRERLSEVVNELNKRIDHLEVKVRSVTQRGNHLVVKADVDAEHNGQEIRRKVDIVLRNNNGRVNLEMIRYR”, the protease stability score is 1.03.
In the case of “DESELEQLKRDWEHNDFDQLVRNMDKDVRLRIGNKQWHGHEQVQNFNRKMQEQIDHQHIRHIETRGNKIRVTYEIDINGQTMVVNAEAYIDNGRLKSMHVKFTSEEHRKVFEKAVD”, the protease stability score came out at 0.746.
Take “DESELERAIEMLEQNDPEEARRQVDKNAHMQVGEKSWTGREDVQTALVKHNEHVDHVEVKSVTKRGDKAEVKARVEFNGHNLKANFIVEVHNGKIKHVRVEVTDEEQKKLMRELLQ”: the protease stability score is -0.363.
For “DESEMDTAVKIVEKGDPHQYKKLIDPNAKIIVGDKELHGREDVERLLHKLYEQADHVQINSITVQGDELRVDAQFKFNGRDIRMVVEFRVHNGRVKSAHIQATSEEQERELSKMIS”, the protease stability score was determined as 1.35.
“DESEMQKAVEDIVKMLETGNETKFQENAPPDVRVDVGDKRFTGREDLRKWVHDVKERVDRIRVTHYSAHGEDVVIDVVYRHNGTNERANIVVHIHNGRMVQMKVQQS” had a protease stability score of 0.944.
For the sequence “DESEQASEVAHEMRHLYRKNDEDRFRELMDENVRARVGDKEYHGREDVLRMFQHEMRTADHMDVQVNDFRKEGDSIIIHADLKYVSNGNDRTRRLVFVLEVNGDTITLLQQQDQ”, the protease stability score was 0.096.
The sequence “DESHARHLQRVFEKNDWQRLVELADEDVRIQIGNYDYHGRTAAQQMFEKLSKQIDHMEVKSMRVQGNKLQFDFEVNFNGKRNQAHFEMHFSNGRIKKIRFQFRDEEHEKDFDRHFS” had a protease stability score of 1.46.
The sequence “DESIMNMMHQLIDAMETNDPEKMKRLADKDATFVYGDKTVHGRHQAEEWIHKVKKHQRFRIDLRDVKADNGRVTVNAQIDQNHNGQPSQRTVDAKAEVSNGRVKHASVRRTS” yielded a protease stability score of -0.117.
In the case of “DESITEFASHWKEVLEHGDFRRMADNVDEDVKVRIGDKEIHGRTRYRRRAKKQEDEISFRLQDLHVEVQGDHIVAKFQATVKINGQPNTFTVNVVMRVHNGRIKYMEQQFSEEDEDKLTQ” it was 0.534; in that of “DESKEAHTLAKKYVELVKKGDQEKMKTMFDPNAKAHIGDKTYHGMTDFVETLVEQAKRVDHQSVDVKSVEVDGDHIDVEVTVKYTYNGQNRSNVERFIVRNHNGKWRVKEWHDK”, -0.145; in that of “DESKKAKKFMEEYKRAIETGDEDTAKNLADKDARVKVGDTTYTGMDHIRERVVTEAKQVDHITFEVKEMQTRPGRLKVRMDVIFDHDGRKDRKEVVLVFKDNNGKVLLLSASYQ”, -0.041.
The sequence “DESKQKQFEHFLEVVKTGNEEDLRKNMDKDVRVQIGDKQVHGRENIASELVRRQKEIKLHIRDMRIDVHNGRVQASVDVVDNINGKPTRYSYRFEYNIENGKLKSARIHIDPDQVRKVEE” had a protease stability score of 1.03.
As to “DESKQRTFAEELLTAWETGNDDQARKLADPNVRFHIGDKEISGRENFAKWAKEVRDRVDHIRYEHIEIRGEKVRVNVQLEFDGKTERRVIVFNVHDGQVKSMDVKTT”, the protease stability score came to 1.34.
Regarding “DESKVNEIVQKFVNAVREGNENHLRSLMDKDVTLHVGDRTWHGREQVASFMAHVAKRVDRIRIVHIEIHGDKANVNVRFDVNGTEVQLTMDIRIKNGRIMKIHMSPEDEKKLQG”, the protease stability score came to 1.76.
In the case of “DESLADVFRRLLEAYRNGDEQKLRDNVDPNAKFNIGDKRFSGREQFARDMHKERKEIRVSIQLHEYDNQGEDVDFTFQFSAEVNGEPVHDTVRVEVHAHNGKIKRVHMHMSEKFQHQLRG” it was -0.027; in that of “DESLAEQWMRDIKSNNEERFRRYVDPNVHADVGNFKVHGRHDLVEQLRKLLEQVDHLDYHSVSADGDDVTVDVVIDVNGNTVRYELIVRFHNGQAHSLQMHVTNPDQDRQLHEVVK”, -0.013; in that of “DESLEDMARQLNTALQTNNPESVKEMFDKNARLEVGDKTWKGREHIDQWANRLRDEIRYEVRRFDLRVHGDKIEVNVHEEIQINGRPKSVSYSYTMRAHNGRIKHARYQPDPDAERRKKK”, 0.031.
Turning to “DESLEERLDTLRKVEEQGDEDTAREQADPNVKIVVGDRRVHGMDEQLEELRRRVKEARVTIESLSVDAHGDKVDVKVRLTFTIDGRPASVNLHQHYQLQNGKFKHVEARFSEEDRDELQT”, the protease stability score was 0.846.
On to “DESLHRWYERLQEALEHGDEDRLRKNADKDVQVDVGDKRVHGSEHYAHELVRESREMDFHIHRMEVSVTGNRITVDYVYDREHNGTPQSKRVQERYQAHNGKLKRASVQETD”, for which the protease stability score is -0.093.
In the case of “DESLMKVAQEVHDAWNQGDPTKLQENFDKDAEIQVGDKQIHGREDATRELDRKKKQQRFEVQVTSMTAQNGDVKVDARFHFKHNGRPDERRFKLTINAENGRIQEASIDQTK” it was -0.151; in that of “DESLQHMAEEMLEVWQTGDKERAATMMDKDARVRVGDHTVRGRESLQKNIETEKEQMRVQIRHVDARVHNGRVDVKVEVELDHNGKPQRVVYNIDFRAHNGRVQEIHIQEDG”, -0.181; in that of “DESLRKLLERIWRALTSGDPDELRKLADEDAKFQIGDKRINGMNEAAERWATRVRQLRVRIEDVKQHVEGDKVEAHLDVVREKNGQPQKHEEHVRMRAEGDRAKELVIQISQ”, 0.031.
In the case of “DESLRSKAEEFLKAIEHGDPDEASRQLDPNARFEIGDKEITGRETFDRTMHETRNQMRLEVKSYDARASNGRVHMEVRFQATHNGQPQDNREVQDFQFSNGRIERVSVEKDS”, the protease stability score is -0.463.
“DESLVEILKKLAKAFNENDPDHLVKLFDEDARLDYGDTSVHGREQIKRLMEDWKRRMTVKIRVNHIDVKNGRAQMKADLTIRHNGKPDTNKVEVELHAHNGRNKEVVFERTK” returned a protease stability score of 0.279.
In the case of “DESMQKEVHDFLKAQMTNNEDQLRRQADPNARFVYGNKTLHGMDQAAKHLVKLYREATFRIESVSIDAQGDKADIKQTFIVDINGKPDRDTADIKIKFHNGTIKEVNIQVDEEKERKIRS” it was -0.218; in that of “DESNREVYQKLLNAQTKGDEETAKELADPNASVQIGDKQIHGMDQYVKQMTRDKRRARVRIRDVRVDVQGDNIRVSAHFQEDHNGKPDERTMTQSYKVENGKMKSASVHSLS”, -0.124.
In turn, “DESQAEALHEVLQAERTNDPKKVEEQMDPHVNIVIGDKTYHGRDRIREDVKRKIDEMRVHVESVRFDEQGDKARAEATLRYNHNGRPSSKKIVIQMKAENGQIKTMRVHDTK” showed a protease stability score of -0.646.
On to “DESQAKEFVDNFKTNNREELQKQVDKDAKMIVGNKEYHGEEQVQDALRDLNEEVDHLTIKSVELKGNSVTIYFIIVINGTRMTVHVVAVFHNGRVKKEVWTATDEDDKRKIDQVVG”, for which the protease stability score amounted to 0.281.
In the case of “DESQHQSLAKNLVRIFEEGDEDDVRKLADKDARLEVGDHELRGREQVAKFYKRVRDRIDELEIRDVHVQGERVSVHVVVRYNGRHVDFKINIVAHNGRITRVRVDPDRFRQLHS” it was 1.64.
